Tested on: Escherichia coli TOP10
Experiment: shrunken log2 fold change of peptide-encoding DNA abundance (4.5 h post-induction vs induction); higher = less antimicrobial activity (less host growth inhibition)
Settings: time post-induction: 4.5 h; library: site-saturation at positions 5, 18, 19, 20
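Further: peptides expressed intracellularly from a pBAD plasmid library in pooled LB shake-flask culture, induced with 0.3% L-arabinose, DNA abundance read by NGS, three biological replicates, DESeq2 with apeglm shrinkage.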

In order of rising “shrunken log2 fold change” value:
1. RRIRIRPPRLPRPRPRPRIMPRP  -0.537
2. RRIRQRPPRLPRPRPRPSNEPRP  -0.5
3. RRIRVRPPRLPRPRPRPDHDPRP  -0.485
4. RRIRFRPPRLPRPRPRPFVTPRP  -0.442
5. RRIRVRPPRLPRPRPRPLGNPRP  -0.424
6. RRIRERPPRLPRPRPRPYFAPRP  -0.373
7. RRIRFRPPRLPRPRPRPIYGPRP  -0.289
8. RRIRHRPPRLPRPRPRPFSHPRP  -0.254
9. RRIRLRPPRLPRPRPRPFKSPRP  -0.209
10. RRIRFRPPRLPRPRPRPYKCPRP  -0.208
11. RRIRRRPPRLPRPRPRPFTMPRP  -0.198
12. RRIRFRPPRLPRPRPRPNLLPRP  -0.187
13. RRIRMRPPRLPRPRPRPNNKPRP  -0.183
14. RRIRVRPPRLPRPRPRPSHSPRP  -0.171
15. RRIRERPPRLPRPRPRPEYAPRP  -0.143
16. RRIRCRPPRLPRPRPRPRWYPRP  -0.134
17. RRIRRRPPRLPRPRPRPYFSPRP  -0.122
18. RRIRKRPPRLPRPRPRPIMNPRP  -0.119
19. RRIRVRPPRLPRPRPRPDWMPRP  -0.0942
20. RRIRVRPPRLPRPRPRPNNAPRP  -0.0777
21. RRIRNRPPRLPRPRPRPTECPRP  -0.0689
22. RRIRHRPPRLPRPRPRPKNFPRP  -0.0655
23. RRIRQRPPRLPRPRPRPMQQPRP  -0.0642
24. RRIRRRPPRLPRPRPRPFDIPRP  -0.0362
25. RRIRERPPRLPRPRPRPFWHPRP  -0.0333
26. RRIRHRPPRLPRPRPRPVQPPRP  -0.0332
27. RRIRFRPPRLPRPRPRPQEEPRP  -0.0228
28. RRIRTRPPRLPRPRPRPKYLPRP  -0.0222
29. RRIRSRPPRLPRPRPRPCTSPRP  -0.0192
30. RRIRYRPPRLPRPRPRPNCYPRP  -0.0166
31. RRIRQRPPRLPRPRPRPNDLPRP  -0.0128
32. RRIRDRPPRLPRPRPRPDFKPRP  0.00362
33. RRIRMRPPRLPRPRPRPHDMPRP  0.0059
34. RRIRLRPPRLPRPRPRPATQPRP  0.00742
35. RRIRDRPPRLPRPRPRPVMQPRP  0.023
36. RRIRTRPPRLPRPRPRPPFQPRP  0.0322
37. RRIRLRPPRLPRPRPRPPVHPRP  0.0348
38. RRIRRRPPRLPRPRPRPFEMPRP  0.0983
39. RRIRQRPPRLPRPRPRPKMAPRP  0.12
40. RRIRPRPPRLPRPRPRPGSTPRP  0.123
41. RRIRRRPPRLPRPRPRPSFDPRP  0.135
42. RRIRWRPPRLPRPRPRPAKHPRP  0.192
43. RRIRERPPRLPRPRPRPALVPRP  0.193
44. RRIRDRPPRLPRPRPRPSMAPRP  0.202
45. RRIRMRPPRLPRPRPRPGQCPRP  0.234
46. RRIRPRPPRLPRPRPRPQRGPRP  0.251
47. RRIRNRPPRLPRPRPRPAWLPRP  0.276
48. RRIRVRPPRLPRPRPRPSAEPRP  0.299
49. RRIRMRPPRLPRPRPRPIFWPRP  0.337
50. RRIRKRPPRLPRPRPRPLLVPRP  0.372
51. RRIRCRPPRLPRPRPRPEQLPRP  0.407
52. RRIRARPPRLPRPRPRPDPTPRP  0.447
53. RRIRARPPRLPRPRPRPVAFPRP  0.457
54. RRIRKRPPRLPRPRPRPGSWPRP  0.571
55. RRIRMRPPRLPRPRPRPATSPRP  0.654
56. RRIRARPPRLPRPRPRPTCVPRP  0.698
57. RRIRDRPPRLPRPRPRPVVAPRP  0.725
58. RRIRWRPPRLPRPRPRPTCQPRP  0.729
59. RRIRGRPPRLPRPRPRPMLGPRP  1.19
60. RRIRIRPPRLPRPRPRPKMWPRP  1.25
